# Tested on: PC3-PIP (PSMA expressing) and PC3 (PSMA deficient) tumours
# Set-up: species or system male BALB/c nude mice
# Conditions: mouse, in vivo
# Description: In vivo biodistribution studies of [^212Pb]Pb-ADVC001 were performed using an animal model of prostate cancer. Tumour xenographs were grown on opposite flanks of male BALB/c nude mice after inoculation with 10^6 PC3-PIP (PSMA expressing) and PC3 (PSMA deficient) cell lines. In this model, the PC3 tumours act as a control to assess the specificity of [^212Pb]Pb-ADVC001 uptake within PSMA expressing tumours. Once the tumours had reached 5-10 mm in size, 3 groups (representing 3 different time points) of 5 mice were injected with 300-325 kBq of [^212Pb]Pb-ADVC001 via the lateral tail vein. At 1, 4 and 24 hours after injection, mice were euthanised and multiple organs collected and weighed. Radioactivity in each organ was counted using a well-type gamma counter (counting window 218-258 keV). Activity levels of [^212Pb]Pb-ADVC001 expressed as percent injected dose/gram of tissue (% ID/g) measured from each organ over the 3 time points are given in Table 1 with the biodistribution plots presented in FIG. 1A. Activity accumulation over time of [^212Pb]Pb-ADVC001 for major organs (kidney, liver and bone marrow) along with tumour uptake is provided in FIG. 3. […] The biodistribution of [^212Pb]Pb-PSMA-I&T expressed as percent injected dose/gram of tissue (% ID/g) measured from each organ over the 3 time points is presented in FIG. 1B. […]
compound,measurement,value
"NC(=O)CN1CCN(CC(N)=O)CCN(C(CCC(=O)N[C@H](Cc2ccc(O)c(I)c2)C(=O)N[C@H](Cc2ccccc2)C(=O)N[C@H](CCCCNC(=O)CCCCCCC(=O)NCCCC[C@H](NC(=O)N[C@@H](CCC(=O)O)C(=O)O)C(=O)O)C(=O)O)C(=O)O)CCN(CC(N)=O)CC1 (stereo partly shown) [[^212Pb]Pb-ADVC001, metal not drawn]",tumour to kidney activity ratio,significantly higher
